T1: HA-tagged Mst2, full-length (UniProt Q13188 1-491)
T1 sequence (looked up): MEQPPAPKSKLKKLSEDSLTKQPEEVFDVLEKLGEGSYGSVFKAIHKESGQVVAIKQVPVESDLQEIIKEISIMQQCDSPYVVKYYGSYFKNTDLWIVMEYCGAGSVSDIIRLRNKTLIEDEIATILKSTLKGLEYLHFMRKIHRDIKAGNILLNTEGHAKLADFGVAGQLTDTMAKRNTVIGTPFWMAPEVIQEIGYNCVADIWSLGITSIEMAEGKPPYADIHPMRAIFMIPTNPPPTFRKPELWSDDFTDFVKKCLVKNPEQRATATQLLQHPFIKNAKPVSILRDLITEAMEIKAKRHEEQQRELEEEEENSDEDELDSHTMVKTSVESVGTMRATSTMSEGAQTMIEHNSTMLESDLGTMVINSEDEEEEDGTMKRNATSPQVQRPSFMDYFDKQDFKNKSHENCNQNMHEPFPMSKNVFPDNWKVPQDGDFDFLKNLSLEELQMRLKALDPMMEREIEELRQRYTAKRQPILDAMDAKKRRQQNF

B1: Myc-tagged Mst1, full-length (1-487) (natural protein, UniProt Q13043 1-487, looked up)
chain: METVQLRNPPRRQLKKLDEDSLTKQPEEVFDVLEKLGEGSYGSVYKAIHKETGQIVAIKQVPVESDLQEIIKEISIMQQCDSPHVVKYYGSYFKNTDLWIVMEYCGAGSVSDIIRLRNKTLTEDEIATILQSTLKGLEYLHFMRKIHRDIKAGNILLNTEGHAKLADFGVAGQLTDTMAKRNTVIGTPFWMAPEVIQEIGYNCVADIWSLGITAIEMAEGKPPYADIHPMRAIFMIPTNPPPTFRKPELWSDNFTDFVKQCLVKSPEQRATATQLLQHPFVRSAKGVSILRDLINEAMDVKLKRQESQQREVDQDDEENSEEDEMDSGTMVRAVGDEMGTVRVASTMTDGANTMIEHDDTLPSQLGTMVINAEDEEEEGTMKRRDETMQPAKPSFLEYFEQKEKENQINSFGKSVPGPLKNSSDWKIPQDGDYEFLKSWTVEDLQKRLLALDPMMEQEIEEIRQKYQSKRQPILDAIEAKKRRQQNF

Columns and labels:
[1] = target: Mst2 SARAH domain with a C-terminal Cys, AEDANS-labelled (UniProt Q13188); test: FRET or BRET
[2] = target: Mst1 SARAH domain with a C-terminal Cys, AEDANS-labelled (UniProt Q13043); test: FRET or BRET
[3] = target: T1, HA-tagged Mst2, full-length; test: co-IP

Molecule	Kd [1]	also measured
Mst1 SARAH domain, unlabeled (from UniProt Q13043 433-480) (domain or fragment)	0.72 µM	–
Mst1 SARAH domain with a C-terminal Cys, AEDANS-labelled (from UniProt Q13043 433-480) (domain or fragment)	–	Kd [2]: 6.5 µM
Mst2-LW SARAH domain, unlabeled (from UniProt Q13188 437-484) (domain or fragment)	4.3 µM	–
B1	–	level of heterodimers relative to homodimers [3]: ~60%
